Experimental data: publication PMC2660430

Target: PfSAHH (recombinant S-adenosyl-L-homocysteine hydrolase), P50250
Test: SPR
Conditions: chain shown with the change; Maximum response at end of analyte injection; SAHH on the sensor surface oxidized with 0.5 mM DTNB; 30 µl of analyte, 10 µM in HBS buffer; pre-injection …; parent: est. 93; read off a plot

PfSAHH (recombinant S-adenosyl-L-homocysteine hydrolase), P50250, sequence (P50250 whole entry): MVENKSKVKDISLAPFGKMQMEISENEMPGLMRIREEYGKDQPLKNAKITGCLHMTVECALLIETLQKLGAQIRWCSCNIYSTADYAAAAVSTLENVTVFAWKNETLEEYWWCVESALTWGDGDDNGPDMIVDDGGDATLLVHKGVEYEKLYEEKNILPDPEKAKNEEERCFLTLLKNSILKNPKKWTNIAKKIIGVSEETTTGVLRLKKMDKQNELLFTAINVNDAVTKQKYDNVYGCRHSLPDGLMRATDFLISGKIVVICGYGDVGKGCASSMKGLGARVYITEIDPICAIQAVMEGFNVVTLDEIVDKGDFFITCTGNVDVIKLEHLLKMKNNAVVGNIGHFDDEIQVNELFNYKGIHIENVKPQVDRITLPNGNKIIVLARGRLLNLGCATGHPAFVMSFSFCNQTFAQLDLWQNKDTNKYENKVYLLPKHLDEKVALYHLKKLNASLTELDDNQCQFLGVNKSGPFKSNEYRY

| Binder | response (RD (normalized)) |
| --- | --- |
| PfGrx1 (wild type glutaredoxin) C32S (protein) MAGTSEAVKKWVNKIIEENIIAVFAKTECPYSIKAISILKGYNLNSHMHVENIEKNPDMANIQAYLKELTGKSSVPRIFINKDVVGGCDDLVKENDEGKLKERLQKLGLVN | 98 |
| PfGrx1 (wild type glutaredoxin) C29S; C32S (protein) MAGTSEAVKKWVNKIIEENIIAVFAKTESPYSIKAISILKGYNLNSHMHVENIEKNPDMANIQAYLKELTGKSSVPRIFINKDVVGGCDDLVKENDEGKLKERLQKLGLVN | 59 |
